Experimental data reported in the supplement of paper PMC9170038.

Experiments:
MS2 coat protein [1] = test: apparent KD of MS2 coat protein, switch ON state; designed switch direction (-1 OFF switch, 1 ON switch): -1; higher = weaker reporter binding; settings: FMN input: 0 or 200 uM; Eterna round: R93 (includes R88 designs)
In short: (§1)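 Each design's apparent KD comes from the median of binding-curve fits to its normalised clusters. Those clusters carried RNA switches transcribed on-chip from Illumina sequencing clusters. SNAP-549-labelled MS2 coat protein was titrated onto them in twofold steps (0.7 or 1.5 nM to 3 µM; per step 0.8–1.5 h down to 10–20 min). Conditions were 100 mM Tris-HCl pH 7.5, 80 mM KCl, 4 mM MgCl2, without or with constant ligand.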

MS2 coat protein [2] = test: apparent KD of MS2 coat protein, switch OFF state (with FMN for OFF switches, without FMN for ON switches); designed switch direction (-1 OFF switch, 1 ON switch): -1; higher = weaker reporter binding; settings: FMN input: 0 or 200 uM; Eterna round: R93 (includes R88 designs)
In short: as §1

Row | Sequence | apparent KD of MS2 coat protein (MS2 coat protein [1]) | apparent KD of MS2 coat protein (MS2 coat protein [2])
1 | AGUCAGAGAGGAUAUACAUGGAAAAAAAAAGUAAGAUCCCUACAUGAGGAUCACCCAUGUAGAAGGCUCUGACA [Ex2 Design 138: Sub-opt 2] | 27.5 nM | 13.2 nM
2 | AGUCGGCGAGGAUAUACAUGAGGAUCACCCAUGUGAGAGAAAAAAGUGAGCAAGAAAUGUAGAAGGCGCUGACA [JL Lego Mod 3] | 156 nM | 61.9 nM
3 | AGUCGGCGAGGAUAUACAUGAGGAUCACCCAUGUGAGAGAAAAAGGUGAGUCAGAAAAGUAGAAGGCGCUGACA [JL Lego Mod 5] | 166 nM | 47.4 nM
4 | AGUCGGCGAGGAUAUACAUGAGGAUCACCCAUGUGAGAGAAUAAAGUGAGUUAGACAAGUAGAAGGCGCUGACA [JL Lego Mod 10] | 40.5 nM | 226 nM
5 | AGUCUGAGAGGAUAUACAUGGAAAAAAAAAGUUAGAUCCCUACAUGAGGAUCACCCAUGUAGAAGGCUCUGACA [Ex2 Design 149: Sub-opt 13] | 45.8 nM | 15.2 nM
6 | AGUUGGCGAGGAUAUACAUGAGGAUCACCCAUGUAAAAUAAAUAAAAAAUAAGGGAAAGUAGAAGGCGCUGACA [73%, Moding Norbert Elias, 14] | 46.5 nM | 112 nM
7 | AGUUGGCGAGGAUAUACAUGAGGAUCACCCAUGUGAGAGAAAUAAGUGAGAAAGAAAAGUAGAAGGCGCUCACA [JL Lego Mod 17] | 68 nM | 47.4 nM
8 | AUAAACAGAGGAUAUACACAAAAUAAAGAAAAUAAAGAAACACAUGAGGAUCACCCAUGUAGAAGGCUGGAAAA | 23.3 nM | 22.7 nM
9 | AUCUUGUCAGGAUAUGACUACAUAAAAAAAAAAAAAUGUAGUCAGAAGGGACAUGAGGAUCACCCAUGUACCAA [HSL_Exclusion 4 64% 2] | 29.1 nM | 24.1 nM
10 | AUGGUACAUGAGGAUCACCCAUGUCAGGAUAUCGGCUGUGACAUGAAAAAAAUGUUAGUGAGAAGGGACUGUAA [EX1 Malc#18 Mod 4 - Jieux - Exclusion 1] | 85.4 nM | 102 nM
11 | CAACAGUCAGGAUAUGCAAAAAAAACGCAACGCAAAAAAAAGCAGAAGGGACAUGAGGAUCACCCAUGUUGUCG [Exclusion4-03] | 29.5 nM | 22.9 nM
12 | CAAGGUGGAGGAUAUACAUGAGGAUCACCCAUGUAAGGACAAUAAAUAAGAUGAAGAAGUAGAAGGCCACUCAA [e3-3] | 41.5 nM | 42.1 nM
13 | CACGGGUUAGGAUAUGCAUGGUGAAAAGACGCGAUCCUUAGACAUGAGGAUCACCCAUGUAGAAGGAACGCGAU [Reonisar] | 17.2 nM | 15 nM
14 | CAGUACUGAGGAUAUACAUGAGGAUCACCCAUGUGGUCCAGCUAGGAAACUAGCACGUGUAGAAGGCAGUACUG [Ex3: 840] | 29.5 nM | 20 nM
15 | CCGAGACAUGAGGAUCACCCAUGUGAGGAUAUAGGUGUAUGCUAAAAAAAGUUAACAACUAGAAGGCACAGAGG [JR_Exc001_Sub308] | 55.7 nM | 129 nM
16 | CUCAAGUAAGGAUAUCCAAGAAAAGAAGAGAAAGAAAAGAAGGAGAAGGUACAUGAGGAUCACCCAUGUAAGAA [EteRNA is fun!] | 28.7 nM | 23.7 nM
17 | CUCAAGUGAGGAUAUCAGUAGUAAAAAAAUAAAAUUACUACUGAGAAGGCACAUGAGGAUCACCCAUGUUCCAA [EX4 342: Super Stable 42] | 124 nM | 181 nM
18 | CUCAUGUCAGGAUAUAGCCACAUGAGGAUCACCCAUGUGGACUAGAAGGGACAUGAGGAUCACCCAUGUAUGAA | 11 nM | 11.3 nM
19 | CUCUAGUCAGGAUAUCCAAGAAAAGAAGAGAAAGAAAAGAAGGAGAAGGGACAUGAGGAUCACCCAUGUAAGAA [EteRNA is fun!] | 75.9 nM | 46.4 nM
